The subject of assay [1] is IL-1RAP-positive (KU812) cell line. The experiment in a line: FACS screening of hybridoma subclones. It counts as binding, human. As to conditions: 5 monoclonal antibody subclones. The source says: Briefly, BALB/c mice (5 weeks, Charles River) were immunized either by foot pad (n=3) or intraperitoneally (n=5) with a recombinant fusion protein consisting of the extra cellular part of IL-1RAP (NM_002182.2, NCBI) and the Fc-part of human IgG1 (R&D Systems, Lille, France). Lymph nodes or spleens cells and blood samples were harvested and cells were fused with the mouse myeloma cell line, then screened by FACS analysis (Becton Dickinson), against IL-1RAP-positive (KU812) and −negative (Raji, KG1) cell lines.
Screening of hybridoma allowed to select 5 monoclonal antibodies subclones that discriminate IL-1RAP positive (KU812 or KG-1 respectively AML or Phi^+p^210 CML) from negative cell lines (Tom-1, NALM-20, Jurkat or Raji, respectively Phi+^p190 B-ALL, Phi-B-ALL, T-ALL or Burkitt's lymphoma).
Molecular characterization was performed by Sanger sequencing of cloned PCR products amplification obtained with degenerated primers specific of the FR1 and constant regions of the heavy and light chains according to the protocol of Wang. Z., et al (J. Immunol. Methods, 2000; 233, pp 167-77). Identification of V-D-J-C gene rearrangement and CDR3 region was obtained after alignment of consensus nucleotide sequences against the IMGT® database using V-QUEST online tool according to Brochet X., et al. (Nucleic Acids Res., 2008, 36, pp 503-8).

In assay [2] the test system is HMEC-1 endothelial cell line. The assay can be described thus: Staining of HMEC-1 dermal endothelial cell line. It counts as binding, human. As to conditions: flow cytometry staining. The source says:
FIG. 22: (A) Tissue microarray. Representative #A3C3 staining of an US Food and Drug Administration standard frozen tissue array, including 90 tissue cores (30 organs) of 3 individual donors per organ (US Biomax, Rockville, MD, USA). Immunostaining was detected using the UltraView Universal DAB Detection Kit (Ventana, USA). Images were acquired and analyzed with NDP.view 2.0 software. […] (Scale bars, 100 μm.) High IL-1RAP (KU812)— or negative (Raji)-expressing cell lines were respectively used as positive or negative controls. (B) IL-1RAP R&D (red) or #A3C3 (blue) staining of HMEC-1 dermal endothelial cell line. Isotype IgG1 (gray) is depicted as overlay. RFI is provided for both staining.

The target in assay [3] is T1, IL-1RAP recombinant protein (Homo sapiens, UniProt Q9NPH3).
T1 construct: recombinant fusion protein consisting of the extra cellular part of IL-1RAP (NM_002182.2, NCBI) and the Fc-part of human IgG1; purchased R&D Systems
T1 sequence (Q9NPH3 21-367 limits assumed): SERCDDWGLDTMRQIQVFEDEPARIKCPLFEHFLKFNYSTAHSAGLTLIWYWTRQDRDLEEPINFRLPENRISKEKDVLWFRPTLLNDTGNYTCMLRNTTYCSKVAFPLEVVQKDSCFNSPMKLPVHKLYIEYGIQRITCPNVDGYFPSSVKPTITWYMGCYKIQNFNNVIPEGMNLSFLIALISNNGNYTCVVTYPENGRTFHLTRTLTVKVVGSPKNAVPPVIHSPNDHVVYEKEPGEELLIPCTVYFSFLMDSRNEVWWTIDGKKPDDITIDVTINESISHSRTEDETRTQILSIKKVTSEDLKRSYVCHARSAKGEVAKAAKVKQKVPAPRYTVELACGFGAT
The experiment in a line: ELISA against recombinant IL-1RAP protein. It counts as binding. As to conditions: BSA negative control. The source says: FIG. 2: recognition of IL-1RAP recombinant protein with #E3C3 mAb by the ELISA technique (b). BSA is the negative control (a).
Anti-human Fc antibody was coated on a bottom of a plastic ELISA plate.

The values that follow come from US11839630B2, “CAR-T cells targeting IL-1RAP and their use” (ETABLISSEMENT FRANCAIS DU SANG, priority 2017, dated 2023).

B1: #E3C3: mouse anti-hIL-1RAP monoclonal antibody subclone generated by standard hybridoma technique; VH SEQ ID NO: 2, VL SEQ ID NO: 4 (antibody, V domains shown)
VH: MGWSCIILFLVATATGVNSQVQLQQPGAELMMPGASVKVSCEASGYTFTDSWMHWVKQRPGQGLEWIGAIDPSDSYTTYNQKFTGKATLSVDESSNTAYMQLSSLTSEDSAVYYCARYYSGSNYISPFPYWGQGTLVTVSA
VL: MESQIQVFVFVFLWLSGVDGDIVMTQSHKFMSTSVGDRVTITCKASLDVSTAVAWYQQKPGQSPKLLIYSASYRYTGVPDRFTGSGSGTDFTFTISSVQAEDLAVYYCQQHYSPPFTFGSGTNLEIK
modifications: Amino acid sequence of chain H (VH) of murine scFv anti-IL-1RAP; Amino acid sequence of chain K (VL) of murine scFv anti-IL-1RAP
In the case of B1, the “relative fluorescence intensity (RFI) by cytometry among subclones” value in assay [1] is “highest relative fluorescence intensity”. Besides, in assay [2], the “recognition of HMEC-1 cell surface” value was “not recognized”. Moreover, the “recognition of IL-1RAP recombinant protein by ELISA” value in assay [3] is “recognize the IL-1RAP recombinant protein”.
